From US20230398116A1, “Agent for reversing resistance to anticancer drugs” (Y'S AC CO., LTD., priority 2020, published 2023)

Tests used:
T47D cells = assay: MTT assay / cell proliferation (confluence) assay, T47D; format: cell-based, human; conditions: 48 hours
Experimental: Human and mouse breast cancer cells (1×10^4) were cultured in 10% FCS containing RPMI1640 medium on a 96-well flat bottom plate (Corning, Tewksbury, MA) at 37° C. for 24 hours, and then stimulated with IL-26 for 48 hours in the presence or absence of EGFR-TKI (gefitinib or erlotinib) at various concentrations, a signal inhibitor, and a neutralizing antibody. HUVECs were seeded in a 96-well flat bottom plate at 5×10^3 cells/well in a 2% FBS-containing EGM medium in which growth factors were reduced by half, and cultured at 37° C. for 12 hours. Thereafter, the medium was aspirated, and a recombinant human IL-26 dimer was adjusted to a final concentration of 10 ng/mL in a 2% FBS-containing EGM medium containing no growth factors, and added to the cells. […] The absorbance at 450 nm/595 nm was measured using Microplate Reader (Bio-Rad, Hercules, CA) and data was analyzed with Microplate Manager 6 software (Bio-Rad).
(§1) Human and mouse breast cancer cells (1×10^4) were cultured in RPMI1640 medium containing 10% FCS for 24 hours at 37° C. on a 96-well flat bottom plate (Corning), and then stimulated with IL-26 (30 ng/ml) in the presence or absence of various concentrations of gefitinib and a neutralizing antibody. Cell proliferation was measured as cell confluence using IncuCyte ZOOM (Essen Bioscience, Ann Arbor, MI).

MDA-MB468 cells = assay: MTT assay / cell proliferation (confluence) assay, MDA-MB468; format: cell-based, human
Experimental: Human and mouse breast cancer cells (1×10^4) were cultured in 10% FCS containing RPMI1640 medium on a 96-well flat bottom plate (Corning, Tewksbury, MA) at 37° C. for 24 hours, and then stimulated with IL-26 for 48 hours in the presence or absence of EGFR-TKI (gefitinib or erlotinib) at various concentrations, a signal inhibitor, and a neutralizing antibody. HUVECs were seeded in a 96-well flat bottom plate at 5×10^3 cells/well in a 2% FBS-containing EGM medium in which growth factors were reduced by half, and cultured at 37° C. for 12 hours. Thereafter, the medium was aspirated, and a recombinant human IL-26 dimer was adjusted to a final concentration of 10 ng/mL in a 2% FBS-containing EGM medium containing no growth factors, and added to the cells. The stimulation was started in the presence or absence of control human IgG and anti-human IL-26 antibodies, and the cells were cultured for 48 hours. Thereafter, a concentration of 20 μl or 1/10 of a 5 mg/ml MTT solution (Tetrazolium monosodium salt, WST-8) was added to each well, and the plate was allowed to stand for 1 hour. The absorbance at 450 nm/595 nm was measured using Microplate Reader (Bio-Rad, Hercules, CA) and data was analyzed with Microplate Manager 6 software (Bio-Rad).
as §1

E0771 cells = assay: In vivo TNBC transplantation model (E0771 in hIL-26Tg or control mice); set-up: species or system mouse
Experimental: E0771 cells (5×10^5) with 50% Matrigel were injected subcutaneously into the flank of hIL-26Tg mice or control mice. Tumor measurements were performed using caliper and volume was calculated using an equation (v=width×width×(length/2)). gefitinib was suspended in H2O with 1% tween (registered trademark) 80 for oral administration (50 mg/kg). Ten days after injection of E0771 cells, the oral administration once a day was performed 5 times a week. As a control, 1% tween (registered trademark) 80 containing H2O without Gefiinib was administered. The monoclonal antibody (mAb) treatment was performed by diluting anti-IL-26 mAb (clone 69-10) (Hatano R et al., MAbs (2019) 1-15, and JP 2009-99492 A) or mouse IgG1 isotype control to 1 mg/ml with sterile PBS, and by intraperitoneal injection of 200 μl (200 μg) once a day twice a week starting on day 10 after E0771 cell injection. Mice were sacrificed until subcutaneous tumor size reached 1600 mm^3. E0771 and HCC70 cells (1×10^5) were cultured for 24 hours in RPMI1640 medium with 10% FCS on Lab-Tek chamber slides (Thermo Fisher Scientific). […] Subcutaneous tumor samples obtained from mice were fixed in 4% paraformaldehyde (Thermo Fisher Scientific) and embedded in OCT compound (Tissue-Tek (registered trademark), Sakura Finetek, Japan). Cells and slides were immunostained with each antibody and observed using a Zeiss inverted microscope and Axiovision 2.0 program (Carl Zeiss, Germany). The fluorescence intensity was quantified with Image-J software (NIH). The images were captured using a 100×400× objective.

[1] = tested on: phosphorylation of AKT, JNK, STAT3 and EphA3 in E0771 cells; assay: Western blotting of phosphorylation in E0771 cells; format: cell-based, mouse
Experimental: To analyze the phosphorylation of AKT, ERK, p38, JNK, STAT3, and EphA3, E0771 cells and HCC70 cells in 100 mm dishes were stimulated with IL-26 ([…]) and an anti-EphA3 polyclonal antibody (pAb) (10 μg/ml) for a specified period of time. After stimulation, the cells were lysed with a 2% protease inhibitor mixture (Sigma-Aldrich) and/or RIPA buffer added with 1×PhosSTOP (Roche Diagnostics, Tokyo, Japan), and a lysate was separated in a reduced state by SDS-PAGE (15 μg/lane). Immunoblots were performed using an anti-phosphorylated AKT antibody, an anti-phosphorylated ERK antibody, an anti-phosphorylated p38 antibody, an anti-phosphorylated JNK antibody, an anti-phosphorylated STAT3 antibody, and an anti-phosphorylated EphA3 antibody that recognize both human and mouse antigens. For reprobing, the membrane was immersed in a stripping buffer. After the stripping procedure, the membranes were re-probed with anti-pan-AKT, anti-pan-ERK, anti-pan-p38, anti-pan-JNK, anti-pan-STAT3, and anti-pan-EphA3 antibodies recognizing both human and mouse antigens. Images were taken using a C-Digit Blot scanner (MS Techno Systems, Inc., Japan).

[2] = target: T1, interaction between IL-26 and EphA3 (Homo sapiens, UniProt Q9NPH9); assay: Immunofluorescence of rhIL-26-Alexa488 and cell surface EphA3 on HCC70 cells; format: cell-based
T1 construct: purchased R&D Systems; host or cells: IL-26 was purchased; EphA3 is endogenous on HCC70 cells
T1 sequence (Q9NPH9 22-171): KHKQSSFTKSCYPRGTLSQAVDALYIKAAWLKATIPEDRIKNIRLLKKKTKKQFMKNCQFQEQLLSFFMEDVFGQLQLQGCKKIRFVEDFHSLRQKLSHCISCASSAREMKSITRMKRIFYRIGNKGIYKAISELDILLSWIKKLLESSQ
Experimental: E0771 and HCC70 cells (1×10^5) were cultured for 24 hours in RPMI1640 medium with 10% FCS on Lab-Tek chamber slides (Thermo Fisher Scientific). The cultured cells were stimulated with Alexa Fluor 488 labeled IL-26 (30 ng/ml) in the presence or absence of recombinant human and mouse EphA3-Ig for 1 hour. HCC70 cells were stimulated with IL-26 (30 ng/ml) in the presence or absence of gefitinib (40 μM), a signal inhibitor, and a neutralizing antibody for 24 hours. Subcutaneous tumor samples obtained from mice were fixed in 4% paraformaldehyde (Thermo Fisher Scientific) and embedded in OCT compound (Tissue-Tek (registered trademark), Sakura Finetek, Japan). Cells and slides were immunostained with each antibody and observed using a Zeiss inverted microscope and Axiovision 2.0 program (Carl Zeiss, Germany). The fluorescence intensity was quantified with Image-J software (NIH). The images were captured using a 100×400× objective.

COc1cc2ncnc(Nc3ccc(F)c(Cl)c3)c2cc1OCCCN1CCOCC1 [gefitinib, Gefitinib, reference compound]
cell proliferation under gefitinib (T47D cells; FIGS. 4C, 4D): suppression of cell proliferation
cell proliferation under gefitinib (MDA-MB468 cells; MDA-MB468, 48 hours, FIGS. 4A, 4B): suppression of cell proliferation
number of Ly6G+ granulocytes infiltrating TME (E0771 cells; gefitinib-treated WT and hIL-26Tg mice compared to vehicle-treated, FIG. 40): significantly increased
phosphorylation of AKT in tumor cells (E0771 cells; gefitinib-treated WT mice, tumor resected 14 days after inoculation, FIG. 41): strongly suppressed
phosphorylation of JNK in tumor cells (E0771 cells; gefitinib-treated WT mice, tumor resected 14 days after inoculation, FIG. 42): strongly suppressed
tumor growth in hIL-26Tg mice (E0771 cells; hIL-26Tg mice, gefitinib 50 mg/kg oral gavage, FIG. 35): tumor suppression by gefitinib was significantly inhibited
tumor growth in control mice (E0771 cells; littermate control (WT) mice, gefitinib 50 mg/kg oral gavage once a day, five times a week, FIG. 35): suppressed
AKT and JNK phosphorylation under gefitinib ([1]; E0771, gefitinib 20 μM, FIG. 24B): suppression of AKT and JNK phosphorylation

B1: 69-10: mouse anti-human IL-26 monoclonal antibody, clone 69-10, from deposited hybridoma (antibody, V domains shown)
VH: QVTLKESGPGILKPSQTLSLTCSFSGFSLSTSGMGVGWIRQPSGKGLEWLAHIWWDDDKYYNPSLKSQLTISKDTSRNQVFLKITSVDTADTATYYCVRGGITATHYYAMDYWGQGTSVTVSS
VL: DIQMTQSPASQSASLGESVTISCLASQTIGTWLSWYQQKPGKSPQLLIYAATSLADGVPSRFSGSGSGTKFSFKISSLQAEDFVSYYCQQLYSSPWTFGGGTKLEIK
inhibition of interaction between IL-26 and EphA3 ([2]; HCC70, rhIL-26-Alexa488 30 ng/ml, 50 μg/ml each, 1 hour, FIG. 21): clearly inhibited the interaction between IL-26 and EphA3
tumor growth, anti-IL-26 mAb and gefitinib (E0771 cells; hIL-26Tg mice, clone 69-10 200 μg/dose i.p. twice a week with gefitinib, compared to gefitinib alone, FIG. 36): significantly reduced
tumor growth, anti-IL-26 mAb alone (E0771 cells; hIL-26Tg mice, not illustrated): no effect on tumor growth

B2: IL-26: recombinant human IL-26 dimers for cell stimulation, R&D Systems (protein)
chain: T1 sequence (Q9NPH9 22-171)
effect of exogenous IL-26 on suppression of cell proliferation by gefitinib (T47D cells): inhibited
colocalization of exogenous IL-26 with cell surface EphA3 ([2]; HCC70, FIG. 21): colocalized with the cell surface EphA3 of HCC70
effect of exogenous IL-26 on suppression of cell proliferation by gefitinib (MDA-MB468 cells; MDA-MB468, 48 hours): inhibited
effect of exogenous IL-26 on inhibitory effect of erlotinib (MDA-MB468 cells; MDA-MB-468, IL-26 30 ng/ml, erlotinib 30 μM or 50 μM, 48 hours, MTT): inhibited the inhibitory effect of erlotinib on cell proliferation
phosphorylation of EphA3 ([1]; E0771, IL-26 30 ng/ml, 0 to 60 minutes, FIG. 24A): induced dephosphorylation of EphA3
AKT and JNK phosphorylation ([1]; E0771, IL-26 30 ng/ml, FIG. 5E): activated AKT and JNK phosphorylation
STAT3 activation ([1]; E0771, IL-26 30 ng/ml, FIG. 5E): did not activate STAT3
